Measured values taken from patent publication US20230242624A1 (NEURIMMUNE, published 2023).
Several values for one entry are separate records, joined by “and”; a condition that tells them apart may be missing. Equal entries are not always repeated. Where two headings read alike, the source gives them in different places.

T1: MERS-CoV Spike protein fragment (RBD, aa 367-606, His tag) (MERS-CoV, UniProt K9N5Q8 367-606)
T1 sequence: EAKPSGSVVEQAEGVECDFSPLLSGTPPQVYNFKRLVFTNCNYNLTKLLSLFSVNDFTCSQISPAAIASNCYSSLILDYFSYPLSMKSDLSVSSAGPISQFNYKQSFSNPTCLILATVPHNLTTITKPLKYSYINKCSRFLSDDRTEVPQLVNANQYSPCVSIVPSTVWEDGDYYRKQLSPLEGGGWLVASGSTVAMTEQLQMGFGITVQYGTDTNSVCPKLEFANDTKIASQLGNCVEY


Legend:
[1] = biological target: recombinant SARS-CoV Spike protein (RBD, His tag) (SARS-CoV, UniProt P59594 306-527); assay: iQue flow cytometry, antigen-coated beads
[2] = biological target: T1, MERS-CoV Spike protein fragment (RBD, …); assay: iQue flow cytometry, antigen-coated beads
[3] = biological target: T2, SARS-CoV-2-S1 (RBD)-His protein (Trenzyme) (SARS-CoV-2, UniProt P0DTC2 319-541); assay: iQue flow cytometry, antigen-coated beads
[4] = biological target: SARS-CoV-2 Spike (S) protein on vesicular stomatitis virus (VSV) pseudoviruses (SARS-CoV-2, UniProt P0DTC2 14-1273); assay: cell-based or functional assay
[5] = biological target: T2, SARS-CoV-2-S1 (RBD)-His protein …; assay: direct ELISA on coated RBD-His
[6] = biological target: T2, SARS-CoV-2-S1 (RBD)-His protein …; assay: direct ELISA on coated RBD-His; remark: listed apart in the source
[7] = biological target: T2, SARS-CoV-2-S1 (RBD)-His protein …
[8] = biological target: T2, SARS-CoV-2-S1 (RBD)-His protein …; assay: competition ELISA, RBD binding to coated ACE2; IgG1
[9] = biological target: T2, SARS-CoV-2-S1 (RBD)-His protein …; assay: competition ELISA, RBD binding to coated ACE2
[10] = biological target: SARS-CoV-2 Spike Protein (S1+S2 ECD, His-Tag) (Sino 40589-V08B1) (SARS-CoV-2, UniProt P0DTC2 14-1213)
[11] = biological target: T2, SARS-CoV-2-S1 (RBD)-His protein …; remark: listed apart in the source
[12] = biological target: T2, SARS-CoV-2-S1 (RBD)-His protein …; assay: direct ELISA on coated RBD-His (FIG. 1C); IgG1
[13] = biological target: T2, SARS-CoV-2-S1 (RBD)-His protein …; remark: listed apart in the source

Binder | EC50 [1] [nM] | EC50 [2] [nM] | EC50 [3] [nM] | IC50, pseudovirus entry assay (luciferase, HEK 293T-ACE2 cells) [4] | EC50 [5] [nM] | EC50 [6] [nM] | IC50 (read off the curve) [7] [µg/mL] | IC50 [8] [µg/mL] | IC50 [9] [nM] | EC50 (read off the curve) [10] [nM] | EC50 (read off the curve) [11] [nM] | EC50 [12] [nM] | EC50 [13] [nM]
NI-607.531_C8 (antibody, V domains shown) VH: EVQLVESGGGVVQPGRSLRLSCTASGFTFSFYSVHWVRQAPGKGLEWVAVISYDGSTKYYADSVKGRFTISRDNSKNTLYLQMDSLRTEDTAVYYCASPPISPIPAAGTPLAYWGQGTLVTVSS VL: not shown | 1000 | 1000 | 1.2 | 86.4 ng/mL and 0.572 nM | ~0.017 | 0.011 | ~0.03 | ~0.132 | 0.153 | – | – | – | –
NI-607.649_B11 (antibody, V domains shown) VH: QVQLVQSGAEVKKPGSSVKVSCKASGGTFSNYAISWVRQAPGQGLEWMGGIIPIFGTANYAQKFQGRVTITADESTSTAYMELSSLRSEDTAVYYCAGDRWYYDSSGYPTPDEYFQHWGQGTQVTVSS VL: QSVLTQPPSVSGAPGQRVTISCTGSSSNIGAGYDVHWYQQLPGTAPKLLIYGNSNRPSGVPDRFSGSKSGTSASLAITGLQAEDEADYYCQSYDSSLSGVVFGGGTKLTVL | 1.7 | 1000 | 1.4 | 232 ng/mL and 1.53 nM | ~0.021 | 0.027 | ~0.04 | ~0.052 | 0.08 | ~0.5 | ~4 | ~0.013 | 0.036
